# Reference: patent US9035028B2, “Temperature sensitive conjugate compositions” (Emory University, priority 2010, dated 2015)
# Where a SMILES comes first, the peptide text is derived from it. Bridges are numbered along the chain shown (N, C = ends). [ ]: non-standard residue; d: D form. hArg = N=C(N)NCCCC[C@H](N)C(=O)O; Mpa = O=C(O)CCS
# Key:
# [1] = target: T1, αv/β3 integrins on vascular cells (Homo sapiens, UniProt P05106+P06756); details: cited from earlier work
# T1 construct: host or cells: vascular cells (not specified)
# T1 sequence (P06756 31-889 limits assumed): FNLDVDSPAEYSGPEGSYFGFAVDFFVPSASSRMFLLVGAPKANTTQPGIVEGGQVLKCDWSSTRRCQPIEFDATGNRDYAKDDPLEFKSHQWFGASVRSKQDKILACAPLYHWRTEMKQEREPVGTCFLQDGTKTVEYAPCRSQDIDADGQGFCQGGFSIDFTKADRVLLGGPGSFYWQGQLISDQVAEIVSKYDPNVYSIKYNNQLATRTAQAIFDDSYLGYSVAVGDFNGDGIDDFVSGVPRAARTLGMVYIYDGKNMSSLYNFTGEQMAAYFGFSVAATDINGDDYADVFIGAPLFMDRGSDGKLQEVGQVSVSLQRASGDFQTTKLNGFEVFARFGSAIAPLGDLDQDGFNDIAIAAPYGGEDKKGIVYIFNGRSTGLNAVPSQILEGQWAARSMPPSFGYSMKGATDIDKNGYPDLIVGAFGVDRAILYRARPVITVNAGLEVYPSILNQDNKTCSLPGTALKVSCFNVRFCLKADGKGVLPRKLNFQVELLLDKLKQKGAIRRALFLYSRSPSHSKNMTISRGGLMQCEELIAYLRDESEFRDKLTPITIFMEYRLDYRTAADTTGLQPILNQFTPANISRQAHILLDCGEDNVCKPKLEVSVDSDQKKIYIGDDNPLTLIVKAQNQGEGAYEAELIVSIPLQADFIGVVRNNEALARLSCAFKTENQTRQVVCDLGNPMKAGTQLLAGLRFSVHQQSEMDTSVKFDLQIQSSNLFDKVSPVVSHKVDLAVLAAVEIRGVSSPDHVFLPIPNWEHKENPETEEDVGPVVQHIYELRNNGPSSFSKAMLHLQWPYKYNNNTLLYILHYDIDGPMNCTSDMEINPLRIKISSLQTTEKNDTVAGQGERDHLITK
# T1 sequence (P06756 891-1048 partner limits assumed): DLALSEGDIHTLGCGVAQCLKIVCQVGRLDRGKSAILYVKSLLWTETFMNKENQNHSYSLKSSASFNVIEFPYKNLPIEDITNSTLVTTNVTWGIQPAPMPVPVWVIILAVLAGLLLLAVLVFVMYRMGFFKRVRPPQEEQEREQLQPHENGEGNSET
# T1 sequence (P05106 27-788): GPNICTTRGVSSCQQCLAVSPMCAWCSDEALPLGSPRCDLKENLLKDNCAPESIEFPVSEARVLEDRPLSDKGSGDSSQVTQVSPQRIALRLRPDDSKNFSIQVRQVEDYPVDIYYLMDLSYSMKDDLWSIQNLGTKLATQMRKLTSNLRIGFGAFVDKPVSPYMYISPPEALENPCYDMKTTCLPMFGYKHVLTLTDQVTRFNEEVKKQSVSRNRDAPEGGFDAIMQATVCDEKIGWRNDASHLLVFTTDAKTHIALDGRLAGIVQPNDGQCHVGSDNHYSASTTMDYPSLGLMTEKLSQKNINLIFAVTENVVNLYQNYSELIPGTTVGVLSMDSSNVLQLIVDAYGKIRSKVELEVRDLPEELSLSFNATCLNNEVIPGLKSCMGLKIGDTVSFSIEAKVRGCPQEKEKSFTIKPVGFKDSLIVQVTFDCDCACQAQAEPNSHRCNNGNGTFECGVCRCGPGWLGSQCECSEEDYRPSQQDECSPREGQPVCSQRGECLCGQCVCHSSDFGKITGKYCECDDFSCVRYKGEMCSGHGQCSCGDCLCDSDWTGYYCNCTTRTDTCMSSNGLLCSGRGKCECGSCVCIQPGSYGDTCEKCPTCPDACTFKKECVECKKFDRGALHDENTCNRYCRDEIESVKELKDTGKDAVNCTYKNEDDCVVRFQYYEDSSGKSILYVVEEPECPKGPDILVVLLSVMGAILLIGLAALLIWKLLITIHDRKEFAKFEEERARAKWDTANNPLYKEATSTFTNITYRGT
# [2] = test system: activated human platelets; experiment: Microscopic analysis of platelet aggregates; type: cell-based; details: both temperatures (22° C. and 37° C.)
# Procedure: For the microscopic analysis of platelet aggregates at different temperatures, non-diluted human PRP was placed onto a glass slide and ADP was added to a final concentration of 20 μM, in the presence and absence of EMP-scFv (50 μg/mL). Abciximab was used as a positive control at a concentration of 10 μg/mL. The experiments were conducted at 22° C. and 37° C. Phase contrast microscopy images were taken using an Olympus CKX41 microscope.
# [3] = target: T2, GPIIb/IIIa (integrin alphaIIb beta3) on human platelets (human, UniProt P08514 32-1039; P05106 27-788); experiment: flow cytometry, resting and ADP-activated human platelets, 22° C., 32° C. and 37° C.
# T2 construct: whole, on cells; also called GPIIb/IIIa receptor; glycoprotein IIb/IIIa
# [4] = Circular dichroism (CD) spectra and thermal transition profile; type: physicochemical
# Procedure: The mathematical fitting of the CD data allowed the determination of the transition temperature (Tt) resulting from conformational change of EMP as the temperature is increased. The mathematical fitting of the CD data to the van't Hoff equation allowed the determination of the transition temperature (Tt) resulting from conformational change of EMP and EMP-scFv as the temperature is increased.
# Circular dichroism (CD) spectra were recorded on a Jasco J-810 spectropolarimeter equipped with a PFD-425S Peltier temperature control unit in 0.1 cm sealed quartz cells at concentrations of 7.5 μM (EMP), 8.4 μM (scFv) and 4.1 μM (EMP-scFv) in 50 mM sodium phosphate buffer, pH 7.4. Temperature/wavelength CD-scans were performed within the temperature range from 5° C. to 35° C. with equilibration for 10 min at each temperature. Spectra were obtained from 260 to 190 nm at a resolution of 0.5 nm and at a scanning speed of 50 nm/min. The CD curves represented the average of five measurements and were smoothed using the means-movement method on the interval analysis of the spectral manager program. CD data are reported as mean residue ellipticity ([θ], deg cm^2 dmol^−1). Thermal transition curves were plotted by the mean residue ellipticity as a function of temperature for the disappearance of the random coil and the appearance of the β-turn structure.
# [5] = target: T3, GPIIb/IIIa on human platelets (Homo sapiens, UniProt P05106+P08514); experiment: Flow cytometry: binding to human platelets; details: regardless of the temperature
# T3 construct: endogenous in cells
# Procedure: Human blood was collected by venipuncture with a 21-gauge butterfly needle from healthy volunteers and anticoagulated with citric acid. Platelet-rich plasma (PRP) was obtained by centrifugation (GS-6R centrifuge, Beckman Coulter) at 100×g at room temperature for 10 min.
# Human PRP was diluted 1/50 in modified Tyrode's buffer containing 2 mM MgCl2 and 2 mM CaCl2. Platelets were either activated by addition of 20 μM ADP, or non activated, followed by the incubation with 15 and 50 μg/mL EMP-scFv fusion protein or EMP at 22° C., 32° C. and at 37° C. for 15 min. Mouse platelets were either pre-activated for 10 min by addition of 0.1 U/mL thrombin (Enzyme Research Laboratories), or non activated, before the incubation with 15 and 50 μg/mL of EMP-scFv fusion protein at 22° C., 32° C. or 37° C. for 15 min. In both, human and mouse samples, EMP-scFv was detected via 15 min in-dark incubation with secondary antibody (Penta-His Alexa Fluor 488, Qiagen) directed against the His(6)-tag of the single-chain antibody.
# In re-warming experiments, activated and non-activated diluted human PRP was incubated with 15 and 50 μg/mL of EMP-scFv for 15 minutes at 22° C., followed by a 15-min in dark incubation with secondary Penta-His Alexa Fluor 488 antibody. Half of the reaction was then fixed with 1× Cell FIX, while the other half was incubated at 37° C. for either 15 or 30 minutes, before being fixed and measured in FACS.
# GPIIb/IIIa = GPIIb/IIIa (Homo sapiens, UniProt P05106+P08514); experiment: Specificity of scFv (studies in applicant's laboratory); type: binding
# [6] = in contrast to conformation unspecific GPIIb/IIIa inhibitors; cited from earlier work
molecule,measurement,setting,value
N=C(N)NCCCC[C@@H]1NC(=O)CCSSC[C@@H](C(N)=O)NC(=O)[C@@H]2CCCN2C(=O)[C@H](Cc2c[nH]c3ccccc23)NC(=O)[C@H](CC(=O)O)NC(=O)CNC1=O [eptifibatide] ([Mpa][hArg]GDWPC-NH2; disulfide 1-7),ligand binding to αv/β3 integrins on vascular cells,[1],antagonize ligand binding
abciximab [reference compound],ligand binding to αv/β3 integrins on vascular cells,[1],antagonize ligand binding
same,aggregation of activated human platelets (microscopy),[2],abolishes aggregation
EMP alone (elastin-mimetic polypeptide without scFv) (other) MAVPAVGIPAVGIPAVGIPAVGIPAVGIPAVGIPAVGIPAVGIPAVGIPAVGIPAVGIPAVGIPAVGIPAVGIPAVGIPAVGIPAVGIPAVGIPAVGIPAVGIPAVGIPAVGIPAVGIPAVGIPAVGIPAVGIPAVGIPAVGIPAVGIPAVGIPAVGIPAVGIPAVGIPAVGIPAVGIPAVGIPAVGIPAVGIPAVGIPAVGIPAVGIPAVGIPAVGIPAVGIPAVGIPAVGIPAVGIPAVGIPAVGIPAVGIPAVGIPAVGIPAVGIPAVGIPAVGIPAVGIPAVGIPAVGIPAVGIPAVGIPAVGIPAVGIPAVGIPAVGIPAVGIPAVGIPAVGIPAVGIPAVGIPAVGIPAVGIPAVGIPAVGIPAVGIPAVGIPAVGIPAVGIPAVGIPAVGIPAVGIP,binding result,[3],no binding (tested: 15 and 50 µg/mL)
"EMP: elastin mimetic polypeptide, sixteen repeats of monomer (IPAVG)5, SEQ ID NO: 11, approximately 35 kDa (protein) MAVPAVGIPAVGIPAVGIPAVGIPAVGIPAVGIPAVGIPAVGIPAVGIPAVGIPAVGIPAVGIPAVGIPAVGIPAVGIPAVGIPAVGIPAVGIPAVGIPAVGIPAVGIPAVGIPAVGIPAVGIPAVGIPAVGIPAVGIPAVGIPAVGIPAVGIPAVGIPAVGIPAVGIPAVGIPAVGIPAVGIPAVGIPAVGIPAVGIPAVGIPAVGIPAVGIPAVGIPAVGIPAVGIPAVGIPAVGIPAVGIPAVGIPAVGIPAVGIPAVGIPAVGIPAVGIPAVGIPAVGIPAVGIPAVGIPAVGIPAVGIPAVGIPAVGIPAVGIPAVGIPAVGIPAVGIPAVGIPAVGIPAVGIPAVGIPAVGIPAVGIPAVGIPAVGIPAVGIPAVGIPAVGIPAVGIPAVGIPAVGIP",transition temperature (Tt),"[4]; CD data at 198 and 220 nm, van't Hoff fit",approximately 26 °C
same,binding to resting or activated platelets,[5],did not bind
"scFv: activation-specific GPIIb/IIIa-blocking single-chain antibody, SEQ ID NO: 13 (protein) scFv: MAEVQLVESGGGLVQPGGSLRLSCAASGFMFSRYAMSWVRQAPGKGPEWVSGISGSGGSTYYADSVKGRFTVSRDNSKNTLYLQMNSLRAEDTAVYYCARIFTHRSRGDVPDQTSFDYWGQGTLVTVSSGSASAPKLEEGEFSEARVSSELTQDPAVSVALGQTVRITCQGDSLRNFYASWYQQKPGQAPTLVIYGLSKRPSGIPDRFSASSSGNTASLTITGAQAEDEADYYCLLYYGGGQQGVFGGGTKLTVLRQPKAAPSVTLFPPSSAAAGSEQKLISEEDLNS",specificity of binding,GPIIb/IIIa,GPIIb/IIIa-specific and binds to activated platelets exclusively
same,conformational changes in CD,[4]; temperature increased up to 35° C.,No significant conformational changes
same,bleeding time,[6],does not prolong bleeding time
